Laboratory results reported in the RNAGym collection of RNA variant scans (doi:10.1073/pnas.2313332121).

B1: TPR t1 (parent)
chain: GACCAAUCUGCCCUCAGAGCUCGAGAACAUCUUCGGAUGCAGAGGAGGCAGGCUUCGGUGGCGCGAUAGCGCCAACGUCCUCAACCUCCAAUGCAUCCCACCACAUGAUGAUGCCUGAAGAGCCUUGGUUUUUUG

Variants of: B1
Assay: polymerase ribozyme fitness, log enrichment relative to wild type (log ratio); higher = more active; in vitro selection for triplet polymerase activity
Summary of the method: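 To select mutant libraries of each subunit of a heterodimeric triplet polymerase ribozyme, built by PCR and transcribed, each was annealed with a biotinylated primer, partner subunit and triplets, then incubated frozen at −7 °C. Extended constructs were gel-excised, captured on streptavidin beads and amplified by RT-PCR, in one round carried out in triplicate. Illumina sequencing of input and output libraries kept genotypes with ≥10 input reads and ≥1 read per output. Fitness is the base-2 logarithm of genotype enrichment relative to wild-type enrichment, from inverse-variance-weighted replicate averages.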

| Variant | polymerase ribozyme fitness (log ratio) |
| --- | --- |
| G47U G60U | -1.15 |
| G48A C88G | -0.075 |
| G47A C88G U112G U133A | -5.65 |
| A46U G122A | -2.16 |
| G47C G71A | -3.14 |
| G47A U112A | -0.273 |
| A46C C76A | -0.908 |
| G48C C79G | -4.27 |
| G45U G63U A84G | -3.63 |
| A46U C70U C79G U130C | -4.73 |
| G47C G69U C72U | -1.29 |
| G48A C73A | -0.973 |
| G47A G93U G113U C123U G135U | -6.04 |
| G48A C62A | -2.76 |
| G45U U112A G128C | -2.89 |
| G48A G61A U130A | -0.668 |
| G47A G60C G69U A119U | -2.55 |
| A46U G48U U112G G135C | -3.81 |
| A46U C62U G113A | -2.45 |
| G47C C56A G110U | -5.35 |
| G47A G48A C53A G127A | -3.92 |

| Variant | polymerase ribozyme fitness (log ratio) |
| --- | --- |
| A46C C76A C86U C104U | -0.577 |
| G47C G52C G120U C123A | -1.92 |
| G48A C73A U92A C115U | -5.26 |
| G47U C64U | -1.51 |
| G47U G120C | -0.748 |
| A46U G93A A119G U132A | -1.15 |
| A46U C79U C82U G110U G135A | -3.2 |
| G48A C56U G93C C94G | -5.23 |
| A46U C86A A118G | -0.968 |
| A46U G69U A91U A103G U106A C114U U131G | -5.56 |
| G47C A50C C72U C85G C88G C102U C123U | -7.42 |
| G47C C64U | -2.48 |
| G47A G69A G77C C99U C114G | -6.85 |
| G45U U92A | -3.79 |
| A46U C64G C123G C124A | -5.93 |
| G48C A91C U92G G120A C124U U130C | -1.63 |
| G47C A108G U112A | -5.05 |
| G47C G48A C72U A91C C97U | -3.42 |
| G48A C80U U96A C114U | -3.73 |
| A46U C89U G135U | -4.54 |
| G45U G77U C79U C114G | -4.37 |

| Variant | polymerase ribozyme fitness (log ratio) |
| --- | --- |
| G47A C72A | -0.266 |
| G47A C72U | -0.456 |
| G48A U59A C72G G120U G135A | -2.76 |
| G48C C62A G65U U78C U130C | -4.95 |
| G47C C49G U96A | -2.52 |
| G47A A121U | 1.38 |
| G47C G117U | -4.33 |
| G48C C49A C88U A95G | -0.72 |
| G47U G52A C73A C86A | -0.962 |
| G48A U59A | -0.703 |
| G48A C82U U92A G110U | -6.7 |
| A46C G58A C62U | -1.93 |
| G47A C62U U112C C114U A118G | -3.76 |
| A46U C89U | -2.66 |
| G48A C72A U116C | -1.09 |
| G47U U116C | -1.74 |
| G45U G61A C62U C79A | -2.55 |
| A46C U109C | -6.47 |
| G47U A95U | -1.91 |
| A46U C76A A84C A100C C124A | -4.99 |
| G47A G69C C101U G122A | -3.07 |

| Variant | polymerase ribozyme fitness (log ratio) |
| --- | --- |
| G47C U55C C56A G69U C86U C123A U132A | -1.54 |
| A46U G60C G93C G113C A121C | -4.8 |
| G45U G71A G93A | -2.09 |
| G48A C72U C94U G127A | -2.68 |
| A46C C56A G69U | -1.31 |
| A46U G71U A118G | -0.0825 |
| G48A C64U U78C G107U | -6.15 |
| G45U G69A U78A G127C | -4.73 |
| A46G C53U G113A | -2.14 |
| A46G C73G C82U G93A C104A | -4.85 |
| G47U C49U C62U | -4.79 |
| G48C C79U C101A | -1.57 |
| A46C G93U U106A | -1.93 |
| G47C C115A | -2.22 |
| G48A C72A C115A | -0.421 |
| A46U C62G U112G | -2.14 |
| G48C C56U G77A G110A | -2.29 |
| G47U G48A G52U | -2.97 |
| G48A C94G | -1.71 |
| A46U G48A G52A C62A C88U C124U | -7.18 |
